Holding throughout (experiment): native gel or EMSA
Test [1] concerns the target HIV-1 strain R2 gp140 fused to a modified GCN4 trimerization domain (HIV-1 strain R2 | not stated).
The target of test [2] is HIV-1 strain R2 gp140 with a 15 amino acid flexible linker between gp120 and the gp41 ectodomain, fu (HIV-1 strain R2 | not stated).
Test [3] has as its target HIV-1 strain R2 soluble gp140 envelope glycoprotein (uncleaved) (HIV-1 strain R2).

The stoichiometry N is a count of units in the complex or per binding partner.

In turn, “HIV-1 strain R2 gp140 fused to a modified GCN4 trimerization domain (domain or fragment)” had a stoichiometry N in test [1] of 3.
For the substance “HIV-1 strain R2 gp140 with a 15 amino acid flexible linker between gp120 and the gp41 ectodomain, fu (domain or fragment)”, the stoichiometry N in test [2] was determined as 3.
In test [3], “HIV-1 strain R2 soluble gp140 envelope glycoprotein (uncleaved) (domain or fragment)” displayed a percent dimer greater than 90% and a stoichiometry N of 2.

(Values after paper PMC4028264.)
